Patent publication US20030198971A1

Target: c-fos leucine zipper helix fused via (Gly4Ser)3 linker to BLIP-D49A, fused via a similar linker to β-lactamase (tri-partite cis-inhibited β-lactamase fusion) (UniProt P01100)
Experiment: cell-based or functional assay

BIP (β-lactamase-S70A) without amino-terminal c-jun helix (from UniProt P62593 24-286)
% plating efficiency on 10 µg/ml ampicillin, 100 µM IPTG: 100% | % plating efficiency on 25 µg/ml ampicillin, 100 µM IPTG: 0.7% | % plating efficiency on 50 µg/ml ampicillin, 100 µM IPTG: < 0.01% | % plating efficiency on 100 µg/ml ampicillin, 100 µM IPTG: < 0.01%

BLIP-F142A without amino-terminal c-jun helix (from UniProt P35804 37-201)
% plating efficiency on 10 µg/ml ampicillin, 100 µM IPTG: 100% | % plating efficiency on 25 µg/ml ampicillin, 100 µM IPTG: 4% | % plating efficiency on 50 µg/ml ampicillin, 100 µM IPTG: < 0.01% | % plating efficiency on 100 µg/ml ampicillin, 100 µM IPTG: < 0.01%

c-jun leucine zipper helix fused via (Gly4Ser)3 linker to BLIP-F142A (from UniProt P05412 276-315; P35804 37-201)
% plating efficiency on 10 µg/ml ampicillin, 100 µM IPTG: 100% | % plating efficiency on 10 µg/ml ampicillin, 100 µM IPTG, c-jun-trx co-expressed as inhibitor: 100% | % plating efficiency on 25 µg/ml ampicillin, 100 µM IPTG: 100% | % plating efficiency on 25 µg/ml ampicillin, 100 µM IPTG, c-jun-trx co-expressed as inhibitor: 100% | % plating efficiency on 50 µg/ml ampicillin, 100 µM IPTG: 100% | % plating efficiency on 50 µg/ml ampicillin, 100 µM IPTG, c-jun-trx co-expressed as inhibitor: 75% | % plating efficiency on 100 µg/ml ampicillin, 100 µM IPTG: 100% | % plating efficiency on 100 µg/ml ampicillin, 100 µM IPTG, c-jun-trx co-expressed as inhibitor: 0.5%

c-jun leucine zipper helix fused via (Gly4Ser)3 linker to BIP (β-lactamase-S70A) (from UniProt P05412 276-315; P62593 24-286)
% plating efficiency on 10 µg/ml ampicillin, 100 µM IPTG: 100% | % plating efficiency on 10 µg/ml ampicillin, 100 µM IPTG, c-jun-trx co-expressed as inhibitor: 100% | % plating efficiency on 25 µg/ml ampicillin, 100 µM IPTG: 100% | % plating efficiency on 25 µg/ml ampicillin, 100 µM IPTG, c-jun-trx co-expressed as inhibitor: 100% | % plating efficiency on 50 µg/ml ampicillin, 100 µM IPTG: 100% | % plating efficiency on 50 µg/ml ampicillin, 100 µM IPTG, c-jun-trx co-expressed as inhibitor: 9% | % plating efficiency on 100 µg/ml ampicillin, 100 µM IPTG: 100% | % plating efficiency on 100 µg/ml ampicillin, 100 µM IPTG, c-jun-trx co-expressed as inhibitor: 0.08% | fold reduction of plating efficiency on 100 µg/ml ampicillin by co-expressed c-jun-trx: > 1000 fold
